Data from patent US20240025984A1 (FLUX THERAPEUTICS, published 2024).

How the values were obtained:
Assay in all cases: cell-based or functional assay
[1] = target: T1, SYNGAP1-nanoluc-alfa-tag-fusion
T1 chain: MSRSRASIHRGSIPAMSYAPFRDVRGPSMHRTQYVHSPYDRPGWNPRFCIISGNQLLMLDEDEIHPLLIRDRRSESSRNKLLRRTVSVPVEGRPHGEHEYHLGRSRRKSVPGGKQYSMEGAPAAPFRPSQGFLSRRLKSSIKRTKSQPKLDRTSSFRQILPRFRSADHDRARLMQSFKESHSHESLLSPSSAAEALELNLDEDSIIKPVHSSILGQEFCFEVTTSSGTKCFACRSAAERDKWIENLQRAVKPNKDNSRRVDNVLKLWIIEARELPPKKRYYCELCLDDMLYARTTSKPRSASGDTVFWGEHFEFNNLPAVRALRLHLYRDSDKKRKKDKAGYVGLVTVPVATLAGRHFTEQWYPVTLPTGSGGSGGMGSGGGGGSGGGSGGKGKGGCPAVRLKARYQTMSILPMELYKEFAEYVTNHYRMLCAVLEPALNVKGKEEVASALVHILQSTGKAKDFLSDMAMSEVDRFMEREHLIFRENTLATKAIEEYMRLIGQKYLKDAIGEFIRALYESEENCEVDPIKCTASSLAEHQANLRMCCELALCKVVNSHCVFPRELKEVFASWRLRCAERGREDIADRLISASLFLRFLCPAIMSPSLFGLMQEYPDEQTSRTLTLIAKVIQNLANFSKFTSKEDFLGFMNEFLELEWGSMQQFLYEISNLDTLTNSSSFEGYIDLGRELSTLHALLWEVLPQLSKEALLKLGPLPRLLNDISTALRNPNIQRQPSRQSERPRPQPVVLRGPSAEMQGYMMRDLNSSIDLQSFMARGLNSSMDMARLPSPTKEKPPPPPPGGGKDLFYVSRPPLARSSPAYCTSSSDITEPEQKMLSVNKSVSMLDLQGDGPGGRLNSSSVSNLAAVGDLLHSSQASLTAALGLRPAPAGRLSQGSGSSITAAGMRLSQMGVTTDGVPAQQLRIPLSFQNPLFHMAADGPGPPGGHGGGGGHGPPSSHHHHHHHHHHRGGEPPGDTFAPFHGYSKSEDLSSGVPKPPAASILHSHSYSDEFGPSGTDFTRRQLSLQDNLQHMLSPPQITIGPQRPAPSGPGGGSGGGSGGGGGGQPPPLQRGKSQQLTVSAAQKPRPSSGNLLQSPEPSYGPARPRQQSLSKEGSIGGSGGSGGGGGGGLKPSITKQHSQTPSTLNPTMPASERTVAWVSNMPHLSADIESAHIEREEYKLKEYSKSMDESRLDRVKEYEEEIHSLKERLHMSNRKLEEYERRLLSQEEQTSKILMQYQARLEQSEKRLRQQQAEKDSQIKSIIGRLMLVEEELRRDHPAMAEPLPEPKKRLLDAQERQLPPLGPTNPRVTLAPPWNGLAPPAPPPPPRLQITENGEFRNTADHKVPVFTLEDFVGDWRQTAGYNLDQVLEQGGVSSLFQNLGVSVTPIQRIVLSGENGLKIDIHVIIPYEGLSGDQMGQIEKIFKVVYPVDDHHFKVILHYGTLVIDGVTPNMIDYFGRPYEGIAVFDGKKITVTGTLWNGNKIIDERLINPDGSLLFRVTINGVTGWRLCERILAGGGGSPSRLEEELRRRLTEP

[2] = target: T2, PYDC2-nanoluc-alfa-tag-fusion
T2 chain: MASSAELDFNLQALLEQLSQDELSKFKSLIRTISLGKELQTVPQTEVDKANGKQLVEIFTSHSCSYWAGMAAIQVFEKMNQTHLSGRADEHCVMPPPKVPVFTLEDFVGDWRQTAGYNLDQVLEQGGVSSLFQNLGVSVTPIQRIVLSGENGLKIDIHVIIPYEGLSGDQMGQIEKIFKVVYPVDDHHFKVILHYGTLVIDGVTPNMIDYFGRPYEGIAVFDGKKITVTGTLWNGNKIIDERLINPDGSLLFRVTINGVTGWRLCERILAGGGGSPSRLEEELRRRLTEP

[3] = target: T3, CSTB-nanoluc-alfa-tag-fusion
T3 chain: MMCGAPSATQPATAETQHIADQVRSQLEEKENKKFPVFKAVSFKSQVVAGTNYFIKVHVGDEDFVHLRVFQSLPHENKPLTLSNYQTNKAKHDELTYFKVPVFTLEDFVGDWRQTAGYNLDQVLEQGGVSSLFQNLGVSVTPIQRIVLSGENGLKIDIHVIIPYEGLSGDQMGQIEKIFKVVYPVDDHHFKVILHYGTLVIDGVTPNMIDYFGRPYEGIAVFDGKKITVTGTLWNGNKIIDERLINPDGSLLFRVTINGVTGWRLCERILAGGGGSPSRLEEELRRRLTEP

[4] = target: T4, PCBD1-nanoluc-alfa-tag-fusion
T4 chain: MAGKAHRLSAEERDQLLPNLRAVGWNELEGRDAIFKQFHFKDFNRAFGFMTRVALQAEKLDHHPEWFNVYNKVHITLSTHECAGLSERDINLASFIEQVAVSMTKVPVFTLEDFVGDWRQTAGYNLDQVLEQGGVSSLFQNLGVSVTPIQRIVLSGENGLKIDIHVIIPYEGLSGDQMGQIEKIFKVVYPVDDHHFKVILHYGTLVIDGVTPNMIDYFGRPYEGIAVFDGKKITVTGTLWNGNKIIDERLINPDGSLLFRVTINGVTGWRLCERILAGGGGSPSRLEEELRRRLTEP

[5] = target: Shank3-nanoluc-alfa-tag-fusion (Homo sapiens (Human), UniProt Q9BYB0 76-1806)

B1: FireflyLuciferase-P2A-a_alfatag_nano-Cezanne (other)
chain: MEDAKNIKKGPAPFYPLEDGTAGEQLHKAMKRYALVPGTIAFTDAHIEVDITYAEYFEMSVRLAEAMKRYGLNTNHRIVVCSENSLQFFMPVLGALFIGVAVAPANDIYNERELLNSMGISQPTVVFVSKKGLQKILNVQKKLPIIQKIIIMDSKTDYQGFQSMYTFVTSHLPPGFNEYDFVPESFDRDKTIALIMNSSGSTGLPKGVALPHRTACVRFSHARDPIFGNQIIPDTAILSVVPFHHGFGMFTTLGYLICGFRVVLMYRFEEELFLRSLQDYKIQSALLVPTLFSFFAKSTLIDKYDLSNLHEIASGGAPLSKEVGEAVAKRFHLPGIRQGYGLTETTSAILITPEGDDKPGAVGKVVPFFEAKVVDLDTGKTLGVNQRGELCVRGPMIMSGYVNNPEATNALIDKDGWLHSGDIAYWDEDEHFFIVDRLKSLIKYKGYQVAPAELESILLQHPNIFDAGVAGLPDDDAGELPAAVVVLEHGKTMTEKEIVDYVASQVTTAKKLRGGVVFVDEVPKGLTGKLDARKIREILIKAKKGGKIAVTRLKGSGATNFSLLKQAGDVEENPGPRSGTGSSGEVQLQESGGGLVQPGGSLRLSCTASGVTISALNAMAMGWYRQAPGERRVMVAAVSERGNAMYRESVQGRFTVTRDFTNKMVSLQMDNLKPEDTAVYYCHVLEDRVDSFHDYWGQGTQVTVSSGAPGSGPPSFSEGSGGSRTPEKGFSDREPTRPPRPILQRQDDIVQEKRLSRGISHASSSIVSLARSHVSSNGGGGGSNEHPLEMPICAFQLPDLTVYNEDFRSFIERDLIEQSMLVALEQAGRLNWWVSVDPTSQRLLPLATTGDGNCLLHAASLGMWGFHDRDLMLRKALYALMEKGVEKEALKRRWRWQQTQQNKESGLVYTEDEWQKEWNELIKLASSEPRMHLGTNGANCGGVESSEEPVYESLEEFHVFVLAHVLRRPIVVVADTMLRDSGGEAFAPIPFGGIYLPLEVPASQCHRSPLVLAYDQAHFSALVSMEQKENTKEQAVIPLTDSEYKLLPLHFAVDPGKGWEWGKDDSDNVRLASVILSLEVKLHLLHSYMNVKWIPLSSDAQAPLAQ
[1]
  fold increase in SYNGAP1 protein expression relative to the control (NLuc signal normalised to firefly luciferase signal): 3.1 fold
[2]
  fold increase in PYDC2 protein expression (NLuc signal normalised to firefly luciferase signal): 2.64 fold
[3]
  fold increase in CSTB protein expression (NLuc signal normalised to firefly luciferase signal): 1.61 fold
[4]
  fold increase in PCBD1 protein expression (NLuc signal normalised to firefly luciferase signal): 1.13 fold
[5]
  fold increase in SHANK3 protein expression relative to the control (NLuc signal normalised to firefly luciferase signal): 2.4 fold
